assay: protease stability score; higher = more stable; yeast display proteolysis, trypsin and chymotrypsin;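 also: relative to predicted unfolded state with 0 unfolded-like and 1 meaning tenfold more protease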

| Sequence | protease stability score |
| --- | --- |
| DETEEIAKKVVEYWIREFMTGNEESLLELIDPNAKSDILQGDKELHIVGRESARLFIKRFKGQRMEITHLEVHVQGDKVHVRLHVDIIYNGRKFHVISHVDWEKIDGRWIIHQEKFVFE | 1.71 |
| DELDRISTRLADLFIHLVETGNWEFLKELLDPDVRMIIGDFELVGRETIIEFFEKLERHLGVDHSEIVIERRHSQGEKAELHTRLIVRVNGRKRVIDTRLELHWVDGRLKEINIHEH | 1.17 |
| DEDTRKIYHWAELIVELLMTGDEDILHELADPDVKVHINGVTLHGREEADKFLEEWLRRFKNIQIRIRRITVINGRVDVESEVNVGDKRKDSRIHATVVNGRWKIISMDDH | 1.42 |
| HEEEEKARYFLEIFFHHLLTGDWHILMELLDPDVRMEYDGKKFHGRESAIEIWRELRVTEIHIRHIHMFNGRVYADTEMRGIVNGVNTNTHSELYVRKYDGRWKVEFVVVH | 2.31 |
| SEEEELADIALREIIETLRTGNEELLDKLVDPHVKILFDGREFIGRKDYLRLLREIRIHHVTIEDMEVQGEKVHINMRVDGEINGRRNDYKVQLIALKFNGKWIIEHEHLH | 1.3 |
| NMDEKLKRWAIEDHIKSDETGDENMKEHYMDPNVRIDIGDYELHGREAAIRDIRRIRHEMGVKVMHVEIEHVDVQGEKIRIHSRLIFEINGKEVRHETNIIYSKFDGRWVLKHESIK | 0.102 |
| SHVKEIIRHFFDELVRRRETGDEEVLKELADPHTRLRVGEKEIHGWDEILTRFITWLEIHGAEYTDHRIHDIRVVGEKVHVESEIDIDYNGKHVEHHFEIVVEKINGRWRMKSIFVS | 1.27 |
| SEIEEELSSDRRDFIRAVLTGDFERHIEQMDPNVKLIFNGKEFHGREEVHRSWEELIDRWGVDKFEYRIEDMEHFPGHLMIHGTLNYNGKRERVIIYAVKFNGRWRVERVEIK | 1.55 |
| DEDEEIIEKWVKMMLDAAHTGDERIIEENFDPNTRIHVDGQNHHGREHVHELRRRADYIRIILIIRSIRTQGDYVHVKGEIRIRINWNGRELHLEVEVEIIFLKFDGRWHIRSIVSI | 0.889 |
| SEDEKHFREALEELHRALETGDWKRLDELLDPNTRLHINGVDLIGREMVSRFYRELVEHLGINHIELRVHHIRIIGDKVEMDSELIIDVGDKHIRIDQKLDAKKVDGRWISHVESHR | 2.05 |
| SHLEEEAKEAHDVWLHELLTGDEHQINRLLDPHTRVHIGDKDLHGRHELVRKMVETVRRVDHYHLKIKHLRVQGDKIVSTGNYTLHINGKDIHIDTRLILTKIDGVWILEEIRVE | 1.16 |
| SEDDNLNEWMMRVWLTTLRTGDEKNTERLLDPNARLHVGDKDFHGRELLTKHFYDEVETLGFKHSELKRLLYQGEKMIIHVEVNINGVDIHIDVHIRKIDGRWYIHQVHVR | 2.14 |
| SDWEDLVRMAFHHFIHSMRTGDEDIIHQLLDPEVKINVGDKVIHGREQAFDYIHTLVNRADHIRFRLDHLDVQGDFIEIRTTVDLTYGDKHHRMEVTFFSRKVDGVWLIERVQIK | 1.27 |
| SEDEEIARRYLEFFLHILRTGDFEEMLRLLDPHVRTHVDGREKHGRENVTTFFMRWWEDYGFDHVTLEDFRVHIYGEKIHIKIDGYFHFNGRSVDVKIHVIAKKINGRWLLHEMHFEVR | 1.26 |
| DEEKHEFELLLRLWLRTMETGDEQMSRRLVDPNVRIEIGDKDIHGREEMSRIVRHWRVHDYDIKDSTVQGDKAHLDGHIEGTIDGKTTRFHIHLNLEKINGRWLIKEVVVE | 2.19 |
| SEDEHDARLAIRLLLEALRTGDERIMEELLDPNVRFDINGKEFHGRKYVSEWLHRVDHIESRFELRDVHLFDGRIEVRGILRLHIDVNGKIDDQEKDIVLFVNKVDGRWIVHSWEIH | 1.33 |
| DETRRHTEELFHWLLRAFMTGDFKLSYDNADPDVRFIINGRRDHGRDLYVRDLRHMRVHDSKVNHIHFEFQGDWAVVRVDGHIFGEYDGQHFNLRVEIRIIINKIDGRWSLESVEIRIH | 0.812 |
| GDEEHHATEALERLIHSFETGDEELMTKLVDPHVRFEVNGKLFIGREDVMRWLKERLDRFDHHRVDFKHIRVVGDKVDIHLVLEVDFNGQHFSHDVRVRIIKINGRWRLTHMSIH | 2.3 |
| DELEKDLKDAFRILIEEVKTGDFKSMRRNMDPDARIDIGDKHSVGREEAIHLMEIFYKEWRFEHIDLHDFTLIGNKLELDMRVHGNVDGVRTIVIRRVISEKIDGRWLIRTESIE | 0.494 |
| DEDEEMFHRAVRLLLEHSRTGDEELTTKMADPHVKVDINGRDLIGRESYSRWWSEKAEQMRIDFRFRRVEVFDGVIFIDFKLIVDVNGRRLEFELHILILKIDGRWIIKEVHVK | 0.68 |
| DEREERNKQISELLWHALLTGNWEMLQHLADPHVRVDINGVDLHGRELLVKHLKKFGVDHSRHHDLEIQGEKLIIRGEVEVNGKRIDVEIRIEVIDGKVKHVEVHEN | 1.24 |
| SEIEEEIEQAYKLTKHHWETGDEKDIRRNADPHVRVYFNGREYHGWEVLHEVLRLMGAKHVEIHRYEIQGEYVHIDSEVRQGDKRFRMHVESYKVNGRWFIETVFIK | 0.749 |
| SEHEEEVKHFIELIVHFLKTGDEDHLAKMADPHVRLHIGDKEFHGREDFSKWVHLLLHHWRLKTFILRRVHVQGEKAHIDGQLDFDVDGKKTLLDVHLTVRKIDGRWFIETVIDG | 2.35 |
| SEEERLTRELVEILLELFKTGDEDKWKEMVDPNVRVELIQGEKFIIDHGWESFFRFLLELGVDHREDKRKDAVNGRVHLTGQIDINGRRIDIHLDIDVVNGKVKSIRVELR | 0.933 |
| SDEEDTLESVYKLLEHIERTGDWRIWKELADPNVRVELHVNGVEITDHGREAVERLMLKFGVDHIHFKDFDHRTYNGVVHIQEDIVLNINGREIRTKREISADKVNGKWVFRSVRMKID | 1.69 |

| Sequence | protease stability score |
| --- | --- |
| SHKEEEFRRLFELTIRMFLTGDEDVMSKLMDPNVRLQVHVNGKNIEIHGWENLIKTFIDLGIDHWEFKRSDIIGDFVMLDGRIEFNGRRSNTELRFLIIDGRVKSIIIKIE | 2.05 |
| DEEEKEAKHASERINHDFLTGDWKSLEKLADPETRLIVNGRDFHGRERVLHELVRFYHELGVNHFRIRDIRVIGNKIHVDNQIDVGEKHNEMHVISSKVNGRWVLHTVELN | 1.23 |
| SDWDEWTKRMLDILIEALETGDEEVLSRLIDPNMRLDINGQEFHGREVILRHLITEIQRADHVEFRIEDRDLIDGRVYMEVEKIIHINGVEFRHHVLIIIEKVDGRWYINSVHVR | 2.46 |
| SEEDEELREMARLIILLEWTGDEETFEHLADPHVRSHINGVHLHGRETVSKWLMHVREHLRFNDIRIRDLWVFNGKVKINGEYDGHVNGRRIRYTVHLYFVIIDGRIREISREHR | 0.301 |
| DDIDEHAETVVDHLIRSQMTGNEELFQHLADPHARLDINGKEYVGRELVSKIITHLRIHFLEIQFLHVQGDKVTIDVKIRGKVDGRTETSDQRLILVKINGKWLLTEIEVG | 1.03 |
| DHKDELNEHIMKVWIHFLETGDEEFLYDLMDPHARLDFNGREIHGREILYEFWKRWNKRFPNRIDFLDSVRVIGDKVEMDTTLRIDGVRHETEIRIHVYDGKLKHIEYHIR | 1.4 |
| DEDHRLWEEMIRILHDALRTGDEDMLEHLMDPDTRLHVGDKNVHGRRDMKYFWEILGVDRVELVIRSFRLIDGKAEIDGESRFNGVTRRVRLIHNKINGRWLTESIHIH | 0.745 |
| EELERDMDHWIELVIKLRKTGDWRQLAEMVDPNVRVDVNGVQIHGRESIEELLKRLGIDNVEVSLRDKDRQGEKMIVDMELHYNGKRHETKYIALKINGKWIFETITIR | 1.38 |
| SEDEEEKHKFAEIFWHAHLTGDFDTLKRLVDPNVRIRIGDKDLHGREHLLEELRKIKNLTIEERHVDIQGEWMRMEVVHYVNGVHIDTTIHIDVVNGRIRRIVFNIV | 2.47 |
| TEDMEVMRRILELFIELVTTGDWEILRELLDPNVRIEIGDKQLHGRELVSNSLLLLGVDHIRVKDMKIQGEKLHIETENEINGVKLNTHILLLKINGRWLIKDLSVK | 1.29 |
| DESTKNAQEVIKMIKEIVETGDWRRHHQLVDPNARLHVHINGKDEESHGREEFTRVLMELWKEFGAKHVRFEDFELQGEKIHFHVKINVDGKDVKLLIVALKINGRWLMESVYVEFH | 1.19 |
| NEREKLVLDLAMRWFEAWLTGDEHLLHLLADPNVRFIYGDKHLIGMDELHRFLREIRIISRDRHFEDKRVIGDKVELDVRLRGEVDFNGRRLDIDLTVHIESHIINGKQHTSRMETI | 1.07 |
| DDWLEDTKRLLEEFRQAINTGDEELLKILFDPHVRMNIDGVELHGRSVLEHFLERYDVIKVRRHHITDLKFQGNYLIIHLKTDIQIDIGDKHYKEEREVEMVVEKVNGRWIIRLMTER | 1.4 |
| DEHRELIKEMLERFERSLRTGDEHIQTEMMDPDAKIDINGVELHGRDWASRYIQKYKNVRIEVRTITIQGDKVDIHSTIIIGDKHHSMIIHARKVDGKWVLEEMWVE | 0.613 |
| SEHEKIIVEWTRLLQEILRTGDEEMWLKLLDPHAKTHINGKDIHGMEEAARFWKELHKHMRIEDEEVRETRVVGNKAIYHMERKVNINGRTHEQEVELRVIIVDGQIKKISIHIH | 0.439 |
| SEHHKEAREMVEELIRLYETGDEDTLRTLADPHVRQDINGVDYVGREFAADLLIDEMREIRSHIHVHRIHTYNGQVHVDGHLEFIIGDKSYRLRVHMVVEKVDGKWLHRSEHYK | -0.116 |
| DEHTEEAKHWVTRFIHALSTGDFEQIERLADPHVRVEIGDKEIHGMEFLSEHVLKFKGIRTNIRHIEIHYYDGRVNVEVDIDIHIGDKTVNSELHIHIEKVDGRWVITSLHIRTR | 1.46 |
| DEEEHLARKIATIMIHTLITGNEEEMRRLADPTTRFHDEDHTFHGMEEYNRFIKEWRERFPGVKEEWKIRHIHVINGVAHFDIELRIIVGDKEVSDRVEFIIVVVDGRVKSFELRHK | 2.15 |
| DEDHKQSKHAFELFMHLLRTGDEEVLRRMADPNARIVVNGKDDIGREVFLRVLLEFGVDHMQIRDWELDENHIILVSELRIGEKTHTLDVHFKKINGRWIVEVNNLE | 1.25 |
| SEEDTERTERFELMLHSWLTGDEEFWEKNADPNARLKLLVNGRDIRFHGREMVSEAIRKTLDDLGVDHRRIEHKEVQGDKVHIHQKIDVGDKELKVRIVVVVINGRNEMIIVEVI | 2.26 |
| DEDEHKYRRAAEEFFKILRTGDEDLWKRYADPTPILLLLVGDKIDEYHGMEEVMRVLHEEWRRLGVDHMHVKRVDLQGEKVEMDFTRHIGDKTIRITIIVVVIDGRMKSVEIRTH | 0.8 |
| DEDREHVLKVTRLIWRAWMTGDFERISHLIDPNAKIDINGVDLHGREKLRHHLERVDYMHLESEHERRIDIIGDFVRIEFRFTVILIVNGQEVRDTTHVEIRARIVNGRLTEVYVHEH | 1.55 |
| SETEEAATLMLRMLIETIYTGDEETYKRLADPHVKVRIGDKTFHGREQVIERLHRTWKEMRIEDVEVQDMRYQGDFIRNRTHILLHQGEYRHRFDVEIIVFKFNGQWILTSQHFH | 1.11 |
| DERERLLLEWARKFMENLITGNEELLKEMHDPHYRSHIGDKDLVGREVHHEFWEKHFRHWRIEKFDVRDYHTQGDKARLVVRIVIDVDGRRIDTEIHIHYDIIDGQLRLVTLQYE | 1.5 |
| DEHEETMHWALEVIEEFLQTGDERLMEENLDPNVRLEYGDKILVGRELFLELLRRLVEKYKNIRINIHDIKLYDGRLYLDVELRYGDFRSTTRIFSEKYNGRWVDRSYHVE | 1.71 |
